For 1 substance, cytoplasmic Ca2+ release in MDA-MB-231 cells (Fura-2), dose response to OHD (4–12), EC50 results are on record in PMC9561612.

The target in the assay is CXCR4 receptor (human (endogenous in MDA-MB-231)) (UniProt P61073).
UniProt P61073, sequence (P61073 whole entry): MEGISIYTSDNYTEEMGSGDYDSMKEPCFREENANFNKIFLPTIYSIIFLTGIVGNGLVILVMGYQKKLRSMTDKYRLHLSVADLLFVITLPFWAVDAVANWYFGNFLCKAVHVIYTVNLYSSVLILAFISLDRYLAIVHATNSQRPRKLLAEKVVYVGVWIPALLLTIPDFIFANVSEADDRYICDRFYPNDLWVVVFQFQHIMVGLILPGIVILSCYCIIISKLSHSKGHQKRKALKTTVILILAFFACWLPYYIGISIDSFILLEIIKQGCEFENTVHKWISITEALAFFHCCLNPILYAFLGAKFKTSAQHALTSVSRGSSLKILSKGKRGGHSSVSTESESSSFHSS

In turn, “OHD_(4–12) (Obligate HeteroDimer CXCL4–CXCL12) (from UniProt P48061-2 22-89) (complex)” returned a cytoplasmic Ca2+ release in MDA-MB-231 cells (Fura-2), dose response to OHD (4–12), EC50 of 1.3 nM.
